Reference: patent publication US20180094062A1 (Hoffmann-La Roche, published 2018)
Positions count from the first letter of the chain named. Values belong to the binder of their own block, whether it stands above or below them.

Legend:
[1] = target: HER4, full length, on transfected HEK293 cells (human, UniProt Q15303 26-1308); assay: IHC on HEK293 cells transiently transfected with full length HER4; NC = untransfected cells
Protocol: (§1) All selected clones were tested for reactivity and specificity in IHC. […] After an additional fixation in formalin overnight the Agarose blocks were embedded in paraffin. Untransfected HEK293 cells were used as negative controls and treated accordingly to the transfected cells. After paraffin embedding 3 μm thin sections were prepared using a microtome. The sections were mounted on glass microscopy slides and dried for 2 h. All further steps of the immunohistochemical staining procedure were carried out using a Ventana Benchmark XT. The slides were dewaxed and antigen retrieval was performed by applying heat for 1 hour. For antigen retrieval the Ventana buffer CC1 was used. The antibodies were used at a concentration of 1 μg/ml. For the detection of bound antibody the Ventana UltraView detection kit was used.

SBP-tagged HER3-ECD = target: T1, SBP-tagged HER3-ECD (human, UniProt P21860 20-643); assay: plate assay: SBP-tagged HER3-ECD on streptavidin plate, antibody titrated, 10 nM Europium-labeled Heregulin-beta detected by time-resolved fluorescence; half-maximal rise of the Heregulin signal
T1 construct: not shown: SBP tag
Protocol: On the next day the wells were washed three times with washing buffer (PBS+0.05% Tween-20) and blocked with PBS containing 1% BSA for one hour. After another three washes with washing buffer, 40 μl antibody solution (in Delfia Binding Buffer) was added to each well as a 2× stock of the desired final concentrations (10⁻³ to 10³ nM, alternatively 10⁻⁴ to 10² nM). Immediately […] of 20 nM Europium-labeled Heregulin-beta (PeproTech, Cat. #100-03) was added to achieve a final concentration of 10 nM. The plates were incubated on a shaker at room temperature for two hours. Following three washes with Delfia Wash Buffer, Delfia Enhancement Solution was added and incubated on a shaker for 15 minutes (light protected). Finally, the plates were measured in a Tecan Infinite F200 reader using a time-resolved fluorescence measurement protocol.

TtSlyDcys-Her3 = target: T2, TtSlyDcys-Her3; assay: ELISA, antigen coated, hybridoma supernatant
T2 chain: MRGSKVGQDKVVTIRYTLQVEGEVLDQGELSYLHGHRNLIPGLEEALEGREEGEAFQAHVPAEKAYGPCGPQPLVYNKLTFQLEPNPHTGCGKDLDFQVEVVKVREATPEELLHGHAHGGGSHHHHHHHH
Protocol: For the ELISA screening an antigen down format was used. […] Hybridoma Supernatant was added to the plates and incubated for 1 h at room temperature. Bound antibody was detected with a HRP-labeled F(ab′)₂ goat anti-mouse Fcγ (Dianova) and ABTS (Roche) was used as a HRP-substrate.
As negative controls the scaffold proteins TtSlyDcas and TgSlyDΔIF were used.

[2] = target: T3, HER1, full length, on transfected HEK293 cells (human, UniProt P00533 25-1210); assay: IHC on HEK293 cells transiently transfected with full length HER1; NC = untransfected cells
T3 construct: HEK293 transiently transfected with a plasmid coding for full length HER1; also called EGFR
Protocol: as §1

TtSlyD-Wildtype = target: T4, TtSlyD-Wildtype; assay: SPR, antibody captured, 25 C
T4 construct: scaffold without insert; N-terminal methionine can be present or not; also called T.T.SlyD-wt; wild type Thermus thermophilus SlyD protein
T4 chain: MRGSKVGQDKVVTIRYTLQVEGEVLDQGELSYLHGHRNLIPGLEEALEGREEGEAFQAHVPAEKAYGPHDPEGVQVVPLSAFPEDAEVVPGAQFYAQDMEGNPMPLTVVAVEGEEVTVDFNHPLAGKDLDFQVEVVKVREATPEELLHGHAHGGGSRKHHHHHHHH

[3] = target: T5, human Heregulin fragment (HRG) (human); assay: SPR Biacore T200, antibody captured, 25 C
T5 construct: a 44 kDa homodimeric protein, expressed in FreeStyle 293-F cells; also called Heregulin beta (HRG)
T5 chain: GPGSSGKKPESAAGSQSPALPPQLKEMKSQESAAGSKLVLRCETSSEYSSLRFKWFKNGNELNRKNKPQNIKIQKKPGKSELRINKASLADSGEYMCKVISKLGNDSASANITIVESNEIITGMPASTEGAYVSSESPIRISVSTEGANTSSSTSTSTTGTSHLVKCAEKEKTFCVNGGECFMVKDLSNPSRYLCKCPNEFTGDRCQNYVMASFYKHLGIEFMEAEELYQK
Protocol: (§2) A Biacore T200 instrument (GE Healthcare) was mounted with a CM5 series sensor. The sensor was normalized in HBS-ET buffer (10 mM HEPES pH 7.4, 150 mM NaCl, 3 mM EDTA, 0.05% w/v Tween 20) according to the manufacturer's instructions. The sample buffer was the system buffer supplemented with 1 mg/ml CMD (Carboxymethyldextran, Sigma #86524). The system operated at 25° C. 6500 RU RAM-Fcγ (relative units of Fcγ-fragment RamlgG, GE Healthcare) were immobilized according to the manufacturer's instructions using amine coupling EDC/NHS chemistry on all four flow cells. The sensor was deactivated using 1M ethanolamine. […] Concentration dependent kinetics were measured. […] All analytes were injected for 5 min association time and 10 min dissociation time at 100 μl/min flow rate. The sensor capture system was regenerated by a 3 min injection at 10 μl/min of 10 mM glycine pH 1.7. Where possible kinetic data was evaluated using the Biacore T200 evaluation software.

[4] = target: T6, HER4 ECD-HRG complex (Heregulin-complexed Her-4 ECD) (human, UniProt Q15303 26-651); assay: SPR Biacore T200, antibody captured, 25 C
T6 construct: Her-4 ECD incubated with a 5-fold molar excess of Heregulin
T6 sequence 1: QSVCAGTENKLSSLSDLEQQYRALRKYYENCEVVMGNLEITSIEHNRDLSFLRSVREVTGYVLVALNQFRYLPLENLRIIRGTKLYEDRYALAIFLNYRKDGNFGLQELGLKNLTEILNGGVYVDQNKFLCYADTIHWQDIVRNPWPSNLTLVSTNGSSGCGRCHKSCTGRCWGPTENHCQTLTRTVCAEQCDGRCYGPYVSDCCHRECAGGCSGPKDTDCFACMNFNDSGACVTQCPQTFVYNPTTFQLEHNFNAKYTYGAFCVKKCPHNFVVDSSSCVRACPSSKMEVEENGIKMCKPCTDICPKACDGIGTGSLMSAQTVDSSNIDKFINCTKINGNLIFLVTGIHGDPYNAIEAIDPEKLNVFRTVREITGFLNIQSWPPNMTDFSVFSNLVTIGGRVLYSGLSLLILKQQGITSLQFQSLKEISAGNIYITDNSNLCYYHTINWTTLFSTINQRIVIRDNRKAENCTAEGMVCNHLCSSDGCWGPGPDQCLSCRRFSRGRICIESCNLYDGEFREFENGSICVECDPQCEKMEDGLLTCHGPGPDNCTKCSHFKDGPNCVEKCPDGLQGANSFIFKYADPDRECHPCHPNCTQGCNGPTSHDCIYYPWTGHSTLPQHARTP
T6 sequence 2: T5 chain
Protocol: as §2

HER4, full length, on transfected HEK293 cells, sequence (Q15303 26-1308): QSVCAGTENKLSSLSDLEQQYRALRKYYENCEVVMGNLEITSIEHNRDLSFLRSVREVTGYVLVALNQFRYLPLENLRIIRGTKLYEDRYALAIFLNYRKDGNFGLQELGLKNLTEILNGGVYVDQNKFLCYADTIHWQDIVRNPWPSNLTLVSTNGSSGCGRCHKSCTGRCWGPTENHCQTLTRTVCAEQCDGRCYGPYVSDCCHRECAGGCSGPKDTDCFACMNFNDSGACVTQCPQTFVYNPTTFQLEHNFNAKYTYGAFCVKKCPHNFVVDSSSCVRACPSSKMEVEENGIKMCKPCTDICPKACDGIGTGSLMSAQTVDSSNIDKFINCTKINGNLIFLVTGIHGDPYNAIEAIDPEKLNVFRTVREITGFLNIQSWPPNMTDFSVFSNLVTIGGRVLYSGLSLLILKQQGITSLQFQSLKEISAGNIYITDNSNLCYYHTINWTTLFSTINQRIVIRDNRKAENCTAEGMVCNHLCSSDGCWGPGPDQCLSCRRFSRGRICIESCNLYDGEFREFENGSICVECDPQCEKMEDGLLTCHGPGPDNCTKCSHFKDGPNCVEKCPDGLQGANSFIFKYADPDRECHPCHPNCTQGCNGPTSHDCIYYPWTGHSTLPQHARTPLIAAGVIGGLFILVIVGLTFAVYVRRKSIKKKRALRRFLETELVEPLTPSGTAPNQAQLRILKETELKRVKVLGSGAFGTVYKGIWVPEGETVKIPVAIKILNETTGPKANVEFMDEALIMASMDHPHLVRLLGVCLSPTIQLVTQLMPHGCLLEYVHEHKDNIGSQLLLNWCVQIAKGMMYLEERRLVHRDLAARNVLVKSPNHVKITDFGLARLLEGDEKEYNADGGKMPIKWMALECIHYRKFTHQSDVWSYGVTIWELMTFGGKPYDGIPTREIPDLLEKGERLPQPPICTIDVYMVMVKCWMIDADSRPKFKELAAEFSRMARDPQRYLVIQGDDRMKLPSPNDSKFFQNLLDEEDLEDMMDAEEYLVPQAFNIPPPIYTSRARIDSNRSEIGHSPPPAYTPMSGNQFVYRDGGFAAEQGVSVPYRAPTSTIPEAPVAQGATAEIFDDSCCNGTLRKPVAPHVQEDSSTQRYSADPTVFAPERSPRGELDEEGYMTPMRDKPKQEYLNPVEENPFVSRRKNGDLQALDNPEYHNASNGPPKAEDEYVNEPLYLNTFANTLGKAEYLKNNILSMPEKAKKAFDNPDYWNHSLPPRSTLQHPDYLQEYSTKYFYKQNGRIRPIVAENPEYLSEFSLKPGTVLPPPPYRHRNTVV

binding result (TtSlyD-Wildtype): no binding
binding result [3]: no binding (tested: 450 nM)
binding result [4]: no binding (tested: 90 nM)
OD 405 nm (TtSlyDcys-Her3): 3.5 OD
binding result [2]: no binding
binding result [1]: no binding
B3: anti-HER3 antibody M-43-01 (antibody, V domains shown)
VH: EVQLQQSGTVLARPGASVKMSCKASDYTFSNYWVHWVKQRPGQGLEWIGAIYPGNGDSTYYQKFKGKATLTAVTSTSTAYMDLSSLTNGDSAVYFCTRSGVGYNYYFDYWGQGTTLTVSS
VL: DIQMTQSPASLSASVGETVTITCRASENIYSNLAWYQQKQGKSPQLLVYIATNLADGVPSRFSGSGSGTQFSLKINSLQPEDLGSYYCQHFYGTPFTFGTGTKLEIE
notes: mouse hybridoma clone

binding result (TtSlyD-Wildtype): no binding
binding result [3]: no binding (tested: 450 nM)
binding result [4]: no binding (tested: 90 nM)
binding result [2]: no binding
binding result [1]: no binding
EC50 (read off the curve) (SBP-tagged HER3-ECD): ~2 nM
B4: anti-HER3 antibody M-46-01 (antibody, V domains shown)
VH: QIQLQQSGPQLVRPGASVKISCKASGYSFTSYWMHWVKQRPGRGLEWIGMIDPSDGVTRLNQKFKDKATLTVDNSSSTAYMQLSSPTSEDSAVHYCARVDVLYWYFDVWGAGTTVTVSS
VL: DIVLTQSPASLAVSLGQRATISCRASKSISISGYSYMHWYQQKAGQPPKLLIYLTSNLESGVPARFSGSGSGTDFTLNIHPVEEEDAATYYCHHSRELPFTFGSGTKLEIK
notes: mouse hybridoma clone

Further lines, the binder ahead of its results:

B1: anti-HER3 antibody M-08-11 (antibody, V domains shown)
VH: QAYLQQSGAELMRPGASVRMSCQASGYTFTSYTIHWLKQTPRQGLEWIGAIYPRNGDFSYNQKFKDKASLTVDTSSSTAYMHLSSLTSEDSAVYFCARTINYGDWFAYWGQGTLVTVSA
VL: DIQMIQSPASLFVSEGETVIITCRASENIYSNLAWYHQKKGKSPQVLVYAAIKLADGVPLRFSGSGSGTQFSLKINSLQSEDFGSYYCQHFWGPPYTFGSGTNLEIK
notes: mouse monoclonal antibody from hybridoma, tested as hybridoma supernatant or as antibody; also called M-011
binding result [1]: no binding
EC50 (read off the curve) (SBP-tagged HER3-ECD): ~7 nM

B2: anti-HER3 antibody M-17-02 (antibody, V domains shown)
VH: EVQLQQSGTVLARPGASVKMSCKASGYSFTSYWIHWVKQRPGQGLEWIGAIYPGNSDTTYNQKFKGKAKLTAVTSASTAYMELSSLTNEDSAVYYCARTGVWTSYYFDYWGQGTTLTVSS
VL: B3 VL with I50A, K74R, L83F, E107K
notes: mouse hybridoma clone
OD 405 nm (TtSlyDcys-Her3): 1.55 OD
binding result [2]: no binding
binding result [1]: no binding
